These results are taken from paper PMC13013135, “[^99mTc]Tc-PSMA-HSG for PSMA-targeted Hybrid Surgical Guidance: a new addition to the PSMA-I&S/I&T family” (European Journal of Nuclear Medicine and Molecular Imaging, 2025).

Series [1] has as its system mouse serum. The experiment in a line: Plasma protein binding (B50), ultrafiltration, mouse serum. It is filed as in vitro ADME. How it is done:
A detailed experimental procedure is provided in the Supplementary Material. […] Briefly, protein solutions (maximum concentration: […] Samples were briefly vortexed and incubated for 30 min at 37 °C. […] The filter units were then removed from the centrifugal tubes and washed twice with 300 µL PBS to recover the protein fraction. The activity in the filtrate, filter and protein fraction were then quantified using a γ-counter. […] The percentages of radioligand bound to the respective proteins are represented as means ± standard deviation (SD) of three independent experiments.

Series [2] deals with LNCaP xenograft bearing NSG mice. Description: Small animal SPECT/CT with 2-PMPA blocking. The class given is in vivo, mouse. The following applies: 1 nmol peptide, 1 µmol 2-PMPA, SPECT/CT 2–4 h p.i. The method, then:
SPECT/CT images were acquired using an Albira Si PET/SPECT/CT (Bruker Biospin Corporation, Woodbridge, CT, USA) instrument. Mice were injected with the respective ^99mTc-labeled tracer (24–34 MBq; the injected peptide amount was kept constant at 1 nmol/animal), with (blocking) or without (control) coinjection of 226 µg (1 µmol) 2-PMPA. […] For SPECT imaging, static acquisitions of 2 h (accumulation of 1–2 × 10^6 events) were acquired with the following parameters: photopeak at 140 keV ± 30%, axial FOV 82.5 mm using a single pinhole collimator. For reconstruction, an ordered subset expectation-maximization algorithm (OSEM) with two iterations was used, and scatter correction was applied. For CT, the following parameters were used: 400 µA intensity and 35 kV voltage, 600 projections. Images were reconstructed using a filtered back-projection (FBP) algorithm with de-ringing correction. Fused representative SPECT/CT images were acquired using the PMOD software (PMOD technologies, version 3.709, Zurich, Switzerland).

For series [3] the following is noted: human, in vivo. The method, then: [^99mTc]Tc-PSMA-HSG scans were performed using a GE Discovery NM/CT 670 Pro (GE Healthcare, Milwaukee, USA; n = 4) or Siemens Symbia T2 (Siemens Healthineers, Erlangen, Germany; n = 1) system. For dosimetry, planar dynamic whole body scans were performed at 5 min and 1 h after injection with a bed speed of 30 cm/min; and at 3–4 h and 20 h after injection with a speed of 12 cm/min. At 3–4 h and 20 h after injection additional SPECT/CT imaging was acquired. Attenuation maps were generated on the basis of low-dose CT. For a detailed protocol of imaging parameters and the dosimetry protocol please refer to the Supplementary Material.
The planar and SPECT/CT images per time point were processed using syngo.via (Siemens Healthineers, Erlangen, Germany). Organs were segmented on the accompanying CT of the SPECT/CT of each imaging time point to avoid errors due to misalignment during image registration. Segmented organs included gallbladder, muscle, heart, kidneys, liver, lungs, pancreas, spleen, stomach, and urinary bladder on the SPECT/CT. For bone marrow dosimetry, spherical volumes of interest (VOIs) were placed in lumbar vertebrae L2 to L4 [8]. Salivary glands and their background were manually segmented on the anterior view of the planar whole-body scans. Region-wise image statistics were extracted into spreadsheets including administered activity and the time interval between administration and imaging start.
Count statistics were converted into units of Becquerel by using the decay-corrected reference activity source that was within the field of view (FOV) of each imaging acquisition. Percentage injected activities per time were entered into MIRDfit v1.01 for fitting the time-activity data. The trapezoidal method with zero activity at time zero and physical decay extrapolation after the last time point was used for the data with only two SPECT acquisitions and monoexponential fitting was used for the three SPECT acquisitions and if the fit R² was greater than 0.97. The salivary glands with available data from four planar images were fitted biexponentially if R² was greater than 0.97. The bladder was modelled in MIRDfit assuming effective half-life, two time points and a 3 h voiding interval. The resulting time integrated activity coefficients (TIACs, unit of hours) were entered in MIRDcalc v1.22 [10] for dosimetry calculations and patient-individual organ masses for kidneys, liver, pancreas, spleen and estimate for red marrow were used for S-value adjustments.

The structures appear in SMILES notation.

Consider `C[N+]1=C(/C=C/C=C/C=C2/N(CCCCCC(=O)NCCCC[C@@H](NC(=O)[C@@H](CO)NC(=O)[C@@H](CO)NC(=O)[C@@H](CO)NC(=O)CS)C(=O)N[C@H](Cc3ccc(O)cc3)C(=O)N[C@H](Cc3ccc4ccccc4c3)C(=O)N[C@H](CCCCNC(=O)CCCCCCC(=O)NCCCC[C@H](NC(=O)N[C@@H](CCC(=O)O)C(=O)O)C(=O)O)C(=O)O)c3ccc(S(=O)(=O)[O-])cc3C2(C)C)C(C)(C)c2cc(S(=O)(=O)O)ccc21` [[^99mTc]Tc-PSMA-HSG, metal not drawn], for which the “B50 MS” value in series [1] is 142 ± 22. Also, in series [2], the “PSMA-specificity of tumor uptake, coinjection of 2-PMPA” value is listed as “successfully blocked tumor accumulation”. In series [3], the “Absorbed dose coefficient of salivary glands from planar images” value came to 0.007 ± 0.004 mGy/MBq; the “Absorbed dose coefficient of salivary glands from planar images, max” value is listed as 0.013 mGy/MBq; the “Absorbed dose coefficient of salivary glands from planar images, min” value came to 0.005 mGy/MBq; the “Absorbed dose, Brain” value stood at 0.000 mGy/MBq. Further, in series [3], the “Absorbed dose, ET1 airway basal cells” value is 0.000 mGy/MBq; the “Absorbed dose, Eye lens” value came to 0.000 mGy/MBq; the “Absorbed dose, Lymph nodes - extrathoracic” value is 0.001 mGy/MBq; the “Absorbed dose, Tonsils” value came to 0.001 mGy/MBq. Moreover, in series [3], the “Organ TIAC, Bone marrow - red (active)” value is on record as 0.412 h; the “Organ TIAC, Gallbladder content” value came out at 0.015 h; the “Organ TIAC, Heart content” value was 0.164 h; the “Organ TIAC, Lungs” value worked out at 0.360 h. In series [3], the “Organ TIAC, Muscle” value was 1.230 h; the “Organ TIAC, Pancreas” value was determined as 0.035 h; the “Organ TIAC, Spleen” value came out at 0.096 h; the “Organ TIAC, Stomach content” value is listed as 0.090 h. For the same compound, in series [3], the “effective dose for a typically injected activity” value was found to be 7.9 mSv.
